For this experiment, the target named is T1, recombinant human VEGF-R1 (human, UniProt P17948 27-756, limits assumed).
T1 construct: Bought (Acro Biosystems), used as positive control analyte in SPR; also called rhVEGF-R1; VEGF receptor
Briefly: SPR, Biacore T200, 25 C, VEGF165 immobilized, multi cycle kinetics. The method, then: Surface plasmon resonance spectroscopy. The kinetic parameters of the VEGF-binders were measured using a Biacore T200 instrument at 25° C. The bait ligand (recombinant human VEGF₁₆₅, Acro Biosystems) was covalently immobilized on a sensor chip Cl surface at three different densities. The prey analyte (different DARPins, or as a positive control, recombinant human VEGF-R1 (Acro Biosystems)) was analysed using multi cycle kinetics in 10 mM HEPES pH 7.4, 150 mM NaCl, 3 mM EDTA, 0.05% Tween 20 at a flow rate of 50 μl/min.
For determination of the kinetic parameters, the concentration of the probe was measured using a BCA assay (Pierce) and the molecular weight was determined via the SPR signal measured at saturating conditions (Rₘₐₓ). See Table 4 for the MW determined via SPR. Each probe was measured twice on sensor surfaces with three different densities of covalently immobilized recombinant human VEGF₁₆₅. The KD of rhVEGF-R1 is in the double-digit nanomolar range. The unmodified DARPin has a single-digit picomolar affinity to human VEGF₁₆₅, as reported by Stahl et al. (Angiogenesis 16, 101-111 (2013)).

T1 sequence (P17948 27-756 limits assumed): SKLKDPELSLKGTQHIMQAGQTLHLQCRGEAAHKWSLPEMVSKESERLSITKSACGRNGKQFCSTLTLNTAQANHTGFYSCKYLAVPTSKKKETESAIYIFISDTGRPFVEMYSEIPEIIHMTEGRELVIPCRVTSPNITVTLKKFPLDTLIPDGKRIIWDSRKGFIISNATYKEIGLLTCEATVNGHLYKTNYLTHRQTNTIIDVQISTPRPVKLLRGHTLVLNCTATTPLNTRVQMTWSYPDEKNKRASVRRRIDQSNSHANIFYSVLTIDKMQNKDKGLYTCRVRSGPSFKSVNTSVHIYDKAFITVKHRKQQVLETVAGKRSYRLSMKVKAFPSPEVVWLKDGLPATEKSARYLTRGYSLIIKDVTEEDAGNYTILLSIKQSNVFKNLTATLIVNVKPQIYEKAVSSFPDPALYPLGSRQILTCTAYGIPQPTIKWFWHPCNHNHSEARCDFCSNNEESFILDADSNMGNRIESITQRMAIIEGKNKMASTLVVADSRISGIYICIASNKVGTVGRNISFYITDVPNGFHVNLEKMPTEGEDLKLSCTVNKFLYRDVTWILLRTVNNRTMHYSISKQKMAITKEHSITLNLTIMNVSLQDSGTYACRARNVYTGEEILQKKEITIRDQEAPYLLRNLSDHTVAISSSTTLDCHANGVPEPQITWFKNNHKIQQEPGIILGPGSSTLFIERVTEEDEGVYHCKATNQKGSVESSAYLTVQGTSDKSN

B1: recombinant human VEGF165 (ligand, UniProt P15692-4 27-191, looked up)
chain: APMAEGGGQNHHEVVKFMDVYQRSYCHPIETLVDIFQEYPDEIEYIFKPSCVPLMRCGGCCNDEGLECVPTEESNITMQIMRIKPHQGQHIGEMSFLQHNKCECRPKKDRARQENPCGPCSERRKHLFVQDPQTCKCSCKNTDSRCKARQLELNERTCRCDKPRR
notes: Bought (Acro Biosystems); covalently immobilized on a Biacore sensor chip C1 surface at three densities; also called VEGF-A
Consider B1, for which the Kd stood at 0.069 nM, the koff was 8.1e-05 s⁻¹ and the kon stood at 1.1e+06 M⁻¹ s⁻¹.

The values are drawn from patent US20220242919A1 (LIMMATECH BIOLOGICS, published 2022).
